Experimental data from patent publication US20250320312A1 (OXITOPE PHARMA B V, published 2025).
Where a chain is given by its changes, count along the chain named.

Legend:
[1] = target: T1, Peptide 5: Biotin-AEAAAKEAAAKEAAAKEAAAKAAA-[Tyr(PC)]-acid (N-terminal biotin; C-terminal Tyr(PC), PC = p-diazophenyl phosphoryl choline; C-terminal acid); assay: scFv ELISA
T1 construct: synthetic PC-conjugated peptide; the antibodies are directed at the phosphocholine group
T1 peptide: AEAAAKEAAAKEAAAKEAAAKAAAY
Procedure, shortened: (§1)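 Bound scFv was read as OD450 after HRP–anti-V5 detection, TMB development and HCl stop. PPE with BSA was incubated 1 h at RT on BSA-blocked wells coated overnight at 4° C. with peptide, or on streptavidin wells loaded 1 h with biotinylated PC-peptides at 1 μg/mL.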

[2] = target: T2, Peptide 1: Biotin-AGGGGSGGGGSGGGGSAAA-[Tyr(PC)]-acid (N-terminal biotin; C-terminal Tyr(PC), PC = p-diazophenyl phosphoryl choline; C-terminal acid); assay: scFv ELISA
T2 construct: synthetic PC-conjugated peptide; the antibodies are directed at the phosphocholine group
T2 peptide: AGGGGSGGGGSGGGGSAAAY
Procedure, shortened: as §1

[3] = target: T3, Peptide 8: Biotin-AEAAAKEAAAKEAAAKEAAAKAAA-Tyr-acid (N-terminal biotin; C-terminal acid); assay: scFv ELISA
T3 construct: control peptide without PC
T3 peptide: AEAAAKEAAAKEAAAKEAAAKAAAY
Procedure, shortened: as §1

[4] = target: T4, Peptide 4: Biotin-AGGGGSGGGGSGGGGSAAA-Tyr-acid (N-terminal biotin; C-terminal acid); assay: scFv ELISA
T4 construct: control peptide without PC
T4 peptide: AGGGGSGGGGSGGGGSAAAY
Procedure, shortened: as §1

[5] = target: BSA (UniProt P02769); assay: scFv ELISA
[6] = target: BSA (UniProt P02769); assay: scFv ELISA, periplasmic extract on coated BSA, anti-V5-HRP detection
[7] = target: T5, Peptide 4: Biotin-…-Tyr-acid; assay: scFv ELISA, periplasmic extract on coated peptide, anti-V5-HRP detection
T5 sequence (peptide, N-terminal biotin; C-terminal acid): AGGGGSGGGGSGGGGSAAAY

[8] = target: T6, Peptide 8: Biotin-…-Tyr-acid; assay: as above
T6 sequence (peptide, N-terminal biotin; C-terminal acid): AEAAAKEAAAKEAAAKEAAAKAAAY

[9] = target: T7, Peptide 5: Biotin-AEAAAKEAAAKEAAAKEAAAKAAA-[Tyr(PC)]-acid (N-terminal biotin; C-terminal Tyr(PC), PC = p-diazophenyl phosphoryl choline; C-terminal acid); assay: scFv ELISA
T7 construct: Synthetic phosphocholine-conjugated peptide
T7 peptide: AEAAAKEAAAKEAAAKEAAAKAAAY
Procedure, shortened: as §1

[10] = target: T8, Peptide 8: Biotin-AEAAAKEAAAKEAAAKEAAAKAAA-Tyr-acid (N-terminal biotin; C-terminal acid); assay: scFv ELISA
T8 construct: Control peptide without PC
T8 peptide: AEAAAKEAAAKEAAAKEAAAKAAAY
Procedure, shortened: as §1

[11] = target: T9, Peptide 1: Biotin-AGGGGSGGGGSGGGGSAAA-[Tyr(PC)]-acid (N-terminal biotin; C-terminal Tyr(PC), PC = p-diazophenyl phosphoryl choline; C-terminal acid); assay: scFv ELISA
T9 construct: Synthetic phosphocholine-conjugated peptide
T9 peptide: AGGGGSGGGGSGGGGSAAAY
Procedure, shortened: as §1

[12] = target: T10, Peptide 4: Biotin-AGGGGSGGGGSGGGGSAAA-Tyr-acid (N-terminal biotin; C-terminal acid); assay: scFv ELISA
T10 construct: Control peptide without PC
T10 peptide: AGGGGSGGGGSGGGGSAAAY
Procedure, shortened: as §1

[13] = target: T11, Peptide 1: Biotin-AGGGGSGGGGSGGGGSAAA-[Tyr(PC)]-acid (N-terminal biotin; C-terminal Tyr(PC), PC = p-diazophenyl phosphoryl choline; C-terminal acid); assay: scFv ELISA
T11 peptide: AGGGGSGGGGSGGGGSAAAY
Procedure, shortened: as §1

[14] = target: T12, Peptide 8: Biotin-AEAAAKEAAAKEAAAKEAAAKAAA-Tyr-acid (N-terminal biotin; C-terminal acid; no PC); assay: scFv ELISA
T12 construct: control peptide without PC
T12 peptide: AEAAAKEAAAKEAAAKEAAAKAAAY
Procedure, shortened: as §1

[15] = target: T13, Peptide 4: Biotin-AGGGGSGGGGSGGGGSAAA-Tyr-acid (N-terminal biotin; C-terminal acid; no PC); assay: scFv ELISA
T13 construct: control peptide without PC
T13 peptide: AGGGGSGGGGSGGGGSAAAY
Procedure, shortened: as §1

[16] = target: Peptide 5: Biotin-…-[Tyr(PC)]-acid; assay: scFv ELISA
[17] = target: T14, Peptide 4 (N-terminal biotin; C-terminal Tyr without PC conjugation; C-terminal acid); assay: scFv ELISA, OD450
T14 construct: Unconjugated control peptide
T14 peptide: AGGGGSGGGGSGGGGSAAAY
Method: (§2) For ELISA analysis of scFv binding, 96-well polystyrene plates were coated with Peptide 1, 4, 5, 8 or 100 μL BSA (10 μg/mL) in PBS at 4° C. overnight. Plates were washed three times with PBS-Tween and blocked with 100 μL 1% BSA-TBS for 1 hour at room temperature. 96-well streptavidin coated plates were coated with 100 μL biotinylated PC-peptides (1 μg/mL) in PBS for 1 hour at room temperature.
(§3) All plates were washed three times with PBS-Tween before 40 μL aliquots of PPE were added to assay plates along with 50 μL 10% BSA, and plates were incubated for 1 hour at room temperature. After washing, […] HRP conjugated anti-V5 in 5% BSA was added, and plates were incubated at room temperature for 30 mins. Plates were washed and 100 μL TMB substrate was added. Color was left to develop at room temperature before the reaction was stopped with 100 μL 1N HCl. The amount of scFv bound to each well was quantitated from absorbance measurement at 450 nm (OD450).

[18] = target: T15, Peptide 8 (N-terminal biotin; C-terminal Tyr without PC conjugation; C-terminal acid); assay: scFv ELISA, OD450
T15 construct: Unconjugated control peptide
T15 peptide: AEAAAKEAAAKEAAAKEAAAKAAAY
Method: as §2, §3

[19] = target: T16, Peptide 5: Biotin-AEAAAKEAAAKEAAAKEAAAKAAA-[Tyr(PC)]-acid (N-terminal biotin; C-terminal Tyr(PC), PC = p-diazophenyl phosphoryl choline; C-terminal acid); assay: scFv ELISA
T16 peptide: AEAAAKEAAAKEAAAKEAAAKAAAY
Procedure, shortened: as §1

BSA, sequence (P02769 25-607 limits assumed): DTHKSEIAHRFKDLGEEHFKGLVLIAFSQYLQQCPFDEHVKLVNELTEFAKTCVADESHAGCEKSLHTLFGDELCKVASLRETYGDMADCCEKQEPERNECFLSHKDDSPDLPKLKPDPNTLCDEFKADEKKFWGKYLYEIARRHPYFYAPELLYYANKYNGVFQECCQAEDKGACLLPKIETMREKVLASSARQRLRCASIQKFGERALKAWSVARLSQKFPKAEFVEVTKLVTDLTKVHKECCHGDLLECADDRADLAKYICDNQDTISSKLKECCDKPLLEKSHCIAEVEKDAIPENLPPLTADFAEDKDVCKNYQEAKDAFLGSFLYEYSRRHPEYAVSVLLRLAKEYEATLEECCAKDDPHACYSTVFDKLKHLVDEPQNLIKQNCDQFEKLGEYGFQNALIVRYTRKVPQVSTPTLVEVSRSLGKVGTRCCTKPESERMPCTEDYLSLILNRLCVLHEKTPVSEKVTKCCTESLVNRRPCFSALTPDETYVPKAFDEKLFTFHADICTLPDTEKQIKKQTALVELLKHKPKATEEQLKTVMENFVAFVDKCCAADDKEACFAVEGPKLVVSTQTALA

B1: PcOxP_DB02_E06 (scFv, V domains shown)
VH: EVQLLESGGGLVQPGGSLRLSCAASGFTFSDEYMEWVRQAPGKGLEWVAASRGKGNSYTTEYADSVKGRFTISRDNSKNTLYLQMNSLRAEDTAVYYCARDYYGSSYWYFDVWGQGTLVTVSS
VL: DIQMTQSPSSLSASVGDRVTITCTASESLYSSKHKVHYLAWYQQKPGKAPKLLIYGASNRYIGVPSRFSGSGSGTDFTLTISSLQPEDFATYYCAQFYSYPLTFGGGTKVEIK
notes: scFv in periplasmic extract
In the case of B1, the OD450 [1] is reported as 0.08 OD450, the OD450 [2] is reported as 0.06 OD450 and the OD450 [3] is reported as 0.04 OD450. It also gave an OD450 [4] of 0.04 OD450 and an OD450 [5] of 0.1 OD450.

B2: PcOxP_DB04_G11 (scFv) (scFv, V domains shown)
VH: B1 VH with E32H, G53W, G55A, S57D
VL: DIVMTQSPDSLAVSLGERATINCTASESLYSSKHKVHYLAWYQQKPGQPPKLLIYGASNTYIGVPDRFSGSGSGTDFTLTISSLQAEDVAVYYCAQFYSYPLTFGGGTKVEIK
B2 was tested, and the OD450 [6] was 0.07 OD450.

B3: PcOxP_DB04_H01 (scFv) (scFv, part only; not given: linker, domain order, V5 tag, V domains shown, not shown: another chain or arm of the molecule; small tags and cut ends)
VH: B1 VH with E32Y, G53N, G55Y, S57D
VL: B2 VL with T60R, I62S, S99N
B3 showed an OD450 [6] of 0.07 OD450, an OD450 [7] of 0.06 OD450 and an OD450 [8] of 0.07 OD450.

B4: PcOxP_DB02_G03 (scFv, V domains shown)
VH: B1 VH with T28G, E32F, G53N, G55A, S57D, F110H
VL: B2 VL with S28D, A57T, T60R, F97Y
notes: scFv in periplasmic extract
B4 gave an OD450 [9] of 0.1 OD450, an OD450 [10] of 0.05 OD450 and an OD450 [11] of 0.06 OD450. The OD450 [12] was 0.05 OD450 and the OD450 [5] was 0.06 OD450.

B5: PcOxP_DB01_H07 (scFv, V domains shown)
VH: B1 VH with E32H, G53N, G55Y, S57D, Y102I
VL: B2 VL with L29V, H34N, V36K, T60R
notes: scFv in periplasmic extract
B5 gave an OD450 [13] of 0.1 OD450, an OD450 [14] of 0.05 OD450 and an OD450 [15] of 0.05 OD450. It also gave an OD450 [5] of 0.07 OD450 and an OD450 [16] of 0.92 OD450.

B6: PcOxP_DB02_E06 (scFv) (scFv, V domains shown)
VH: B1 VH
VL: B1 VL
notes: scFv in periplasmic extract
B6: no binding (tested: avg neg. control OD450 + 3x SD) [17]; no binding (tested: avg neg. control OD450 + 3x SD) [18].

B7: PcOxP_DB01_H09 (scFv, V domains shown)
VH: B1 VH with E32Y, G53N, G55A, S57T, F110D
VL: B2 VL with T60R
notes: scFv in periplasmic extract
Work on B7 yielded an OD450 [19] of 0.09 OD450, an OD450 [13] of 0.06 OD450 and an OD450 [14] of 0.04 OD450. For the same binder, the OD450 [15] was 0.09 OD450 and the OD450 [5] was 0.09 OD450.

B8: PcOxP_DB02_H02 (scFv, V domains shown)
VH: B1 VH with F27P, E32F, G53N, G55A, S57D
VL: B2 VL with T60R, S99D
notes: scFv in periplasmic extract
B8 gave an OD450 [10] of 0.06 OD450, an OD450 [11] of 0.07 OD450 and an OD450 [12] of 0.04 OD450. The OD450 [5] was 0.06 OD450 and the OD450 [16] was 0.19 OD450.
